The supplement of paper PMC9170038

Test system: MS2 coat protein
Experiment: apparent KD of MS2 coat protein; higher = weaker reporter binding
Conditions: Eterna round: R107
Summary of the method: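 Each design's apparent KD comes from the median of binding-curve fits to its normalised clusters. Those clusters carried RNA switches transcribed on-chip from Illumina sequencing clusters. SNAP-549-labelled MS2 coat protein was titrated onto them in twofold steps (0.7 or 1.5 nM to 3 µM; per step 0.8–1.5 h down to 10–20 min). Conditions were 100 mM Tris-HCl pH 7.5, 80 mM KCl, 4 mM MgCl2, without or with constant ligand.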

[1] = input ligand: theophylline 20 uM
[2] = input ligand: theophylline 2 mM
[3] = input ligand: tryptophan 2.4 mM

| Sequence | apparent KD of MS2 coat protein (input ligand: arginine 13.2 mM) [nM] | apparent KD of MS2 coat protein (input ligand: none) [nM] | apparent KD of MS2 coat protein [1] [nM] | apparent KD of MS2 coat protein [2] [nM] | apparent KD of MS2 coat protein [3] [nM] |
| --- | --- | --- | --- | --- | --- |
| GCACCAGGUACGGAUACCAGACAUUGCCAAUUGGGUGAACAUGAGGAUCACCCAUGUUAAGUCCCUUGGCAGCCGUACCUGGUGC [ETB NP+V+V2 #6 Same Structure] | 11.4 | 10.6 | 17.7 | 178 | 11.5 |
| GCACCAGGUACGGAUACCAGACUCUGCCGAUUGGGUGAACAUGAGGAUCACCCAUGUUAGGUCCCUUGGCAGCCGUACCUGGUGC [#18 Exclusion-TheophyllineB] | 26.4 | – | 73.5 | – | 30.3 |
| GCACCAGGUACGGAUACCAGCUAUAGGCCCUAUGGGCGACAUGAGGAUCACCCAUGUAAUGGCCCUUGGCAGCUGUACCUGGUGC [SSThB NP+V+V2 #10 +-Same Structure] | 120 | – | 97.3 | – | 169 |
| GCACCAGGUACGGAUACCAGCUGCCAGCGUUACAUGAGGAUCACCCAUGUGAUCUGAUAUAGCCCUUGGCAGCUGUACCUGGUGC [SSThB NP+V+V2 #3 +-Same Structure] | 43.4 | – | 416 | – | 49.6 |
| GCACUACAUGAGGAUCACCCAUGUGCAGAUACCAGAGGUGUAUGCCUCCCUUGGCAGCUGCGUCGCUCUGGCAGCUUGUGGGUUG [Same State Theophylline A GF18] | 40.3 | – | 117 | – | 81.5 |
| GCCGGGCCCUCGGCCGCCACUGAGAGAGUCGUGUGAACAUGAGGAUCACCCAUGUAAUAUAUAUACAGGACCGGGAGGGCCCGGC [4.W] | 11.9 | 13.3 | 21.8 | 13.9 | 11.9 |
| GCCUGGGAUACGGCCGCCACUACAUGAGGAUCACCCAUGUAAUAUUUAUUAGAAGAGAGGGUAUGUAGGACCGGGUAAGGAAGGC [e-trypB-0] | 14.3 | 15.8 | 24.9 | 22.5 | 26 |
| GCGGUCGGAGUGCGGCGUGUUCCGCUCCGUCGAGGACCGGUACGGCCGCCACUCGACAUGAGGAUCACCCAUGUCCGACCGCGCG [#1 Exclusion - Tryptophan A Attempt #5 (HarryS)] | 18.4 | 13.4 | 66.5 | 28.8 | 6.86 |
| GCGUGUUAUAGUCAUCGUGAGCGUCCAUCCCGAGGACCGGUACGGCCGCCACUCGCCACAGGACAUGAGGAUCACCCAUGUUAUG [theeternabot_exclusion_MS2_Trp_A_3] | 9.62 | – | 16.8 | 13.8 | – |
| GCUGCCAUACGAAGGAGCGCUGGUGUAAUGAGGCGAACAUGAGGAUCACCCAUGUGGCAGAAGCAGGUAGGUCGCGUAUGGCAGC [EAB #15] | 12.9 | 14.2 | 20.6 | 14.9 | 18.3 |
| GGAAGGACAGUUGAUACCAGUUUCAAAGGCGGUAAUCACUACAUGAGGAUCACCCAUGUCAACCCUUGGCAGCAAUAGACCGUGG [theeternabot_exclusion_MS2_Theo_B_6] | 24 | – | 28.1 | – | 19.2 |
| GGAAUAACGAUUGAUACCAGCAUGUUAACAUGAGGAUCACCCAUGUUAAGGAUAACAUAAUGCCCUUGGCAGCAACGGAAACCCG [#23Same State - Theophylline B] | 16.3 | – | 19.2 | – | 17.8 |
| GGACUAACCAGAAGGAGCGACGCGCAGAAACUGCAAAUUCCUCCACACGAGGAUCACCCGUGUCAGGUAGGUCGCUGGUUAGUCG | 16.5 | 16.6 | 23 | 16.1 | 18.2 |
| GGACUAACCAGAAGGAGCGGCACGCAGAAACUGCAAAAUCCUCCACACGAGGAUCACCCGUGUCAGGUAGGUCGCUGGUUAGUCG | 45.8 | 48.6 | 55 | 52.5 | 48.4 |
| GGAGUAGAUGCGGCCGCCACUUUCUCAAGACACUACAUGAGGAUCACCCAUGUCCAUUCUACACUAAGGACCGGGCAUCCCAUGG [Alaa] | 36.8 | – | 182 | 192 | – |
| GGAGUAGGAAACUAUUCCAAUCCUCGUGAACGAGGACCGGUACGGCCGCCACUCGAUAAUUAAUAACAUGAGGAUCACCCAUGUA [Ex Tryptophan A 21] | 36.6 | – | 80.4 | 89 | – |
| GGAUAGGACACGGCCGCCACUAGCUAGGAUACUAGCAACAUUUCCUCACAAGAGGAUCACCCUUGUAGGACCGGGUGUCCUAUCG | 84.9 | 93.7 | 115 | 118 | 139 |
| GGAUAGGACACGGCCGCCACUAGCUAGGAUACUAGCAACAUUUGGGUACAUGAGGAUCACCCAUGUAGGACCGGGUGUCCUAUCG | 64.4 | 63.7 | 117 | 85.5 | 107 |
